Experimental data as given in US20210269519A1 (University of Texas, published 2021).

T1: Flag tagged-human Lmbr1l (limb region 1 like, LMBR1L) (human, UniProt Q6UX01 1-489)
T1 construct: It carries a Flag tag; also called h-LMBR1L; LIMR
T1 sequence: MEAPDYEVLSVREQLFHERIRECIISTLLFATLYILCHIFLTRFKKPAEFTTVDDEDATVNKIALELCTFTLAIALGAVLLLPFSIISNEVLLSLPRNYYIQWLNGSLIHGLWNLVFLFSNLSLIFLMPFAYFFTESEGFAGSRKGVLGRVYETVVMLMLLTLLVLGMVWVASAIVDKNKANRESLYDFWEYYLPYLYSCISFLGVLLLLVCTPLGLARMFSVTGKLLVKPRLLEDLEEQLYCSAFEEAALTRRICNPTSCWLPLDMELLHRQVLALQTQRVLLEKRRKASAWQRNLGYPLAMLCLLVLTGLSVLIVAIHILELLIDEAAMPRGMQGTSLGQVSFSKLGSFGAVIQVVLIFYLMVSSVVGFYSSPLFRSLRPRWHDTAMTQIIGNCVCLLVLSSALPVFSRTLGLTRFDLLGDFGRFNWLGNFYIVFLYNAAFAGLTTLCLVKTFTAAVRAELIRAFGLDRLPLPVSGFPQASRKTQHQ

T2: FLAG-tagged β-catenin
T2 chain: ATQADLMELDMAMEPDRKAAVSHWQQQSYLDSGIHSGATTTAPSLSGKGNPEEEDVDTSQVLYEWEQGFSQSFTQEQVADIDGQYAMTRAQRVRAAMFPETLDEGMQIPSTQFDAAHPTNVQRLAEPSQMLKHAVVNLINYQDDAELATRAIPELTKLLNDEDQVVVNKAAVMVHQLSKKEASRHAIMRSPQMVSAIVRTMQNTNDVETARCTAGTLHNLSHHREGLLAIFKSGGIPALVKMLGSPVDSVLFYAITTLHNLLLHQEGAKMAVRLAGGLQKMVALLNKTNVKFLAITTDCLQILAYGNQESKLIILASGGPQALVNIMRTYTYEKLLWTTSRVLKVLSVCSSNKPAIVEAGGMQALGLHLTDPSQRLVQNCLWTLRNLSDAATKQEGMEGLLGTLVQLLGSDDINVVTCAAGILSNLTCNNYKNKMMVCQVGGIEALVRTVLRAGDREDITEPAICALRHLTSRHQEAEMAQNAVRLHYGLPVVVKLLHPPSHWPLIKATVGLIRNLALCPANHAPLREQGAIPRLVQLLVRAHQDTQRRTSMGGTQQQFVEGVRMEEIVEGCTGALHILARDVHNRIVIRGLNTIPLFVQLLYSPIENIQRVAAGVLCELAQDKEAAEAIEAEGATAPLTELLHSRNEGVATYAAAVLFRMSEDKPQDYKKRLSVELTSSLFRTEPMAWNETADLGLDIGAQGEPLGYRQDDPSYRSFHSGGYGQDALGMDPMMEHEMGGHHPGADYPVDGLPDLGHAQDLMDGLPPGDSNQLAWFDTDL


molecular target: T1, Flag tagged-human Lmbr1l (limb region 1 …); test: anti-FLAG co-IP from HEK293T lysate + LC-MS/MS, vs empty vector
Protocol: We sought to understand the immune function of LMBRL1 by identifying LMBR1L-interacting proteins using co-immunoprecipitation (co-IP) combined with mass spectrometry (MS) analysis. Among the 1,623 candidate proteins identified as putative LMBR1L interactors (Dataset S1), 25 proteins were >50-fold more abundant in the LMBR1L co-IP product relative to empty vector control (Table 1).
Co-immunoprecipitation and mass spectrometry were performed to identify Lmbr1l-interacting proteins as described below. Transfection was performed in HEK293T cells (ATCC) using Lipofectamine 2000 reagent (Life technologies) with plasmid encoding Flag tagged-human Lmbr1l or empty vector control. Forty-eight hours after transfection, cells were harvested in NP-40 lysis buffer for 45 min at 4° C. […] The proteins were eluted with SDS sample buffer and heated at 95° C. for 10 min. Lysates were loaded onto 12% (wt/vol) SDS-PAGE gel and run 1 cm into the separation gel. The gel was stained with Coomassie blue (Thermo Fisher) and whole stained lanes were subjected to mass spectrometry analysis (LCMS/MS) as described previously (33).

| Molecule | Ratio h-LMBR1L/h-vector |
| --- | --- |
| glycoprotein 78 (GP78; known as AMFR) (enzyme, UniProt Q9UKV5 1-643, looked up, Identified by LC-MS/MS in the LMBR1L co-IP; also called AMFR (GP78)) MPLLFLERFPWPSLRTYTGLSGLALLGTIISAYRALSQPEAGPGEPDQLTASLQPEPPAPARPSAGGPRARDVAQYLLSDSLFVWVLVNTACCVLMLVAKLIQCIVFGPLRVSERQHLKDKFWNFIFYKFIFIFGVLNVQTVEEVVMWCLWFAGLVFLHLMVQLCKDRFEYLSFSPTTPMSSHGRVLSLLVAMLLSCCGLAAVCSITGYTHGMHTLAFMAAESLLVTVRTAHVILRYVIHLWDLNHEGTWEGKGTYVYYTDFVMELTLLSLDLMHHIHMLLFGNIWLSMASLVIFMQLRYLFHEVQRRIRRHKNYLRVVGNMEARFAVATPEELAVNNDDCAICWDSMQAARKLPCGHLFHNSCLRSWLEQDTSCPTCRMSLNIADNNRVREEHQGENLDENLVPVAAAEGRPRLNQHNHFFHFDGSRIASWLPSFSVEVMHTTNILGITQASNSQLNAMAHQIQEMFPQVPYHLVLQDLQLTRSVEITTDNILEGRIQVPFPTQRSDSIRPALNSPVERPSSDQEEGETSAQTERVPLDLSPRLEETLDFGEVEVEPSEVEDFEARGSRFSKSADERQRMLVQRKDELLQQARKRFLNKSSEDDAASESFLPSEGASSDPVTLRRRMLAAAAERRLQKQQTS | 51.7 ratio |
| ubiquitin associated domain containing 2 (UBAC2) (other, UniProt Q8NBM4 36-344, looked up, Identified by LC-MS/MS in the LMBR1L co-IP) HCQKLFVYDLHAVKNDFQIWRLICGRIICLDLKDTFCSSLLIYNFRIFERRYGSRKFASFLLGSWVLSALFDFLLIEAMQYFFGITAASNLPSGFLAPVFALFVPFYCSIPRVQVAQILGPLSITNKTLIYILGLQLFTSGSYIWIVAISGLMSGLCYDSKMFQVHQVLCIPSWMAKFFSWTLEPIFSSSEPTSEARIGMGATLDIQRQQRMELLDRQLMFSQFAQGRRQRQQQGGMINWNRLFPPLRQRQNVNYQGGRQSEPAAPPLEVSEEQVARLMEMGFSRGDALEALRASNNDLNVATNFLLQH | 297 ratio |
| UBX domain-containing protein 8 (UBXD8, known as FAF2) (other, UniProt Q96CS3 2-445, looked up, Identified by LC-MS/MS in the LMBR1L co-IP; also called FAF2 (UBXDB8)) AAPEERDLTQEQTEKLLQFQDLTGIESMDQCRHTLEQHNWNIEAAVQDRLNEQEGVPSVFNPPPSRPLQVNTADHRIYSYVVSRPQPRGLLGWGYYLIMLPFRFTYYTILDIFRFALRFIRPDPRSRVTDPVGDIVSFMHSFEEKYGRAHPVFYQGTYSQALNDAKRELRFLLVYLHGDDHQDSDEFCRNTLCAPEVISLINTRMLFWACSTNKPEGYRVSQALRENTYPFLAMIMLKDRRMTVVGRLEGLIQPDDLINQLTFIMDANQTYLVSERLEREERNQTQVLRQQQDEAYLASLRADQEKERKKREERERKRRKEEEVQQQKLAEERRRQNLQEEKERKLECLPPEPSPDDPESVKIIFKLPNDSRVERRFHFSQSLTVIHDFLFSLKESPEKFQIEANFPRRVLPCIPSEEWPNPPTLQEAGLSHTEVLFVQDLTDE | 71.2 ratio |

Molecular target: T2, FLAG-tagged β-catenin
Test: not given

| Molecule | ubiquitination of β-catenin (anti-FLAG IP, anti-ubiquitin immunoblot) |
| --- | --- |
| glycoprotein 78 (GP78; known as AMFR) (enzyme, UniProt Q9UKV5 1-643, looked up, Identified by LC-MS/MS in the LMBR1L co-IP; also called AMFR (GP78)) MPLLFLERFPWPSLRTYTGLSGLALLGTIISAYRALSQPEAGPGEPDQLTASLQPEPPAPARPSAGGPRARDVAQYLLSDSLFVWVLVNTACCVLMLVAKLIQCIVFGPLRVSERQHLKDKFWNFIFYKFIFIFGVLNVQTVEEVVMWCLWFAGLVFLHLMVQLCKDRFEYLSFSPTTPMSSHGRVLSLLVAMLLSCCGLAAVCSITGYTHGMHTLAFMAAESLLVTVRTAHVILRYVIHLWDLNHEGTWEGKGTYVYYTDFVMELTLLSLDLMHHIHMLLFGNIWLSMASLVIFMQLRYLFHEVQRRIRRHKNYLRVVGNMEARFAVATPEELAVNNDDCAICWDSMQAARKLPCGHLFHNSCLRSWLEQDTSCPTCRMSLNIADNNRVREEHQGENLDENLVPVAAAEGRPRLNQHNHFFHFDGSRIASWLPSFSVEVMHTTNILGITQASNSQLNAMAHQIQEMFPQVPYHLVLQDLQLTRSVEITTDNILEGRIQVPFPTQRSDSIRPALNSPVERPSSDQEEGETSAQTERVPLDLSPRLEETLDFGEVEVEPSEVEDFEARGSRFSKSADERQRMLVQRKDELLQQARKRFLNKSSEDDAASESFLPSEGASSDPVTLRRRMLAAAAERRLQKQQTS | Co-expression of FLAG-tagged β-catenin and HA-tagged GP78 strongly promoted the ubiquitination of β-catenin |

molecular target: Flag tagged-human Lmbr1l (limb region 1 like, LMBR1L) (human) (UniProt Q6UX01); test: anti-FLAG co-IP from HEK293T lysate + LC-MS/MS, vs empty vector

| Molecule | Ratio h-LMBR1L/h-vector |
| --- | --- |
| AAAS (from UniProt F8VZ44 1-422) | 81.9 |
| CKAP4 (from UniProt Q07065 1-602) | 79.5 |
| COPA (from UniProt P53621 1-1224) | 110 |
| FKBP8 (from UniProt Q14318 1-413) | 87.6 |
| GANAB (from UniProt Q14697 29-944) (enzyme) | 198 |
| IMMT | 100 |
| MAGED1 (from UniProt Q9Y5V3 1-778) | 58.1 |
| NCAPD2 (from UniProt Q15021 1-1401) | 169 |
| NDUFA2 (from UniProt O43678 2-99) | 107 |
| PDCD6IP (from UniProt Q8WUM4 2-868) | 67.3 |
| PTPLAD1 | 87.6 |
| RPN1 (from UniProt P04843 24-607) | 118 |
| SRP68 (from UniProt Q9UHB9 1-627) | 198 |
| SRPRB (from UniProt Q9Y5M8 1-271) | 231 |
| TMEM209 (from UniProt Q96SK2 1-561) | 97.8 |

More lines, now with the values ahead:

| Ratio h-LMBR1L/h-vector | Molecule |
| --- | --- |
| 58.1 | EIF4G1 (from UniProt E7EUU4 1-1560) |
| 110 | GAPVD1 (from UniProt Q14C86 1-1478) |
| 106 | IARS (from UniProt J3KR24 1-1121) (enzyme) |
| 65.6 | STT3A (from UniProt P46977 1-705) (enzyme) |
| 87 | TMEM33 (from UniProt P57088 2-247) |
| 51.6 | USP9X (from UniProt Q93008 1-2554) (enzyme) |
